In article doi:10.1101/364463 (bioRxiv, 2019):
Where a chain is given by its changes, count along the chain named.

How the values were obtained:
Assay in all cases: pull-down
[1] = target: T1, GST-PI31-S168E (Drosophila, UniProt Q9V637 1-270, S168E)
T1 sequence: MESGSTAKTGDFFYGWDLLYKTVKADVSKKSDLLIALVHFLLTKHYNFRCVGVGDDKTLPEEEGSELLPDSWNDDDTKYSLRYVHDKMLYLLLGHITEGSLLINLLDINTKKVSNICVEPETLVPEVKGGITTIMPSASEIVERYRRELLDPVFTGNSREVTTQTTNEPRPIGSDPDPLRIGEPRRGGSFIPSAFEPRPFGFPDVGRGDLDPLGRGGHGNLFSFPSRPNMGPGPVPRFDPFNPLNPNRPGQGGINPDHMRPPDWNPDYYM

[2] = target: T2, GST-PI31-WT (Drosophila, UniProt Q9V637 1-270)
T2 sequence: T1 sequence with E168S

[3] = target: T3, GST-PI31-S168D (Drosophila, UniProt Q9V637 1-270, S168D)
T3 sequence: T1 sequence with E168D

Measured: binding result

B1: FLAG-dDYNLL1 (recombinant, E. coli) (natural protein)
chain: MSDRKAVIKNADMSEEMQQDAVDCATQALEKYNIEKDIAAYIKKEFDKKYNPTWHCIVGRNFGSYVTHETRHFIYFYLGQVAILLFKSG
binds: all assays above
